Test results as given in the nanobody polyreactivity screen of Harvey et al. (2022).

Test: yeast display, Sf9 membrane polyspecificity reagent, FACS + sequencing; frameworks hold sequencing errors
How it was run: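 Nanobodies from a synthetic yeast display library (Saccharomyces cerevisiae BJ5465), induced 36–48 hours with galactose, were stained 1 hour at 4 °C with 10% biotinylated, detergent-solubilized Sf9 membrane reagent, enriched on streptavidin microbeads, then FACS-sorted. Anti-HA (expression) and streptavidin (reagent binding) fluorescence set low and high (top ~1%) gates. Polyreactivity labels come from the gate of origin. Genes were colony-PCR amplified, MiSeq 2 × 250 sequenced and filtered by CDR length.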

| Sequence | polyreactivity (PSR sort gate) |
| --- | --- |
| QVQLVESGGGLVQAGGSLRLSCAASGSIFQGNAKGGYRQAPGKERELVAGISDGGSTYYADSVKGRFTISRDNAKNTVYLQMNSLKPEDTAVYYCAAESEQWYSYVLSYDWEYDYWGQGTQVTVSS | low polyreactivity |
| QVQLVESGGGLVQAGGSLRLSCAASGSIFQGYAMGWYRQAPGKERELVAAITASGGSTYYADSVKRRFTISRDNAKNTVYLQMNSLKPEDTAVYYCATDSYWRQDLYRYEYWGQGTQVTVSS | high polyreactivity |
| QVQLVESGGGLVQAGGSLRLSCAASGSIFQGYAMGWYRQAPGKERELVARITSDDDSTYYADSVKGRFTISRDNAKITVYLQMNSLKPEDTAVYYCNADYYWTSLAMDSWGQGTKVTVSS | low polyreactivity |
| QVQLVESGGGLVQAGGSLRLSCAASGSIFQPYAMGWYRQAPGKERELVAAINGRGGSTHYADSVKGRFTISRDNAKNTVYLQMNSLKPEDTAVYYCAATWAYPGSGYVYFYGNDYWGQGTQVTVSS | high polyreactivity |
| QVQLVESGGGLVQAGGSLRLSCAASGSIFQPYAMGWYRQAPGKERELVAAISSSGGSTTYADSVKGRFTISRDNAKNTVYLQMNSLKPEDTAVYYCAAQYRYYPEAYGMGYWGQGTQVTVSS | low polyreactivity |
| QVQLVESGGGLVQAGGSLRLSCAASGSIFQPYGMGWYRQAPGKERELVASIRGSAGSTHYADSVKGRFTISRDNAKYTVYLQMNSLKPEDTAVDYCAARAVASHFSPSLYGYWGHGTQVTVSS | high polyreactivity |
| QVQLVESGGGLVQAGGSLRLSCAASGSIFQQYAMGWYRQAPGKERELVAAISWGDGSTYYADSVKGRFTISRDNAKNTVYLQKNSLKPEDTAVYYCNAYASAPLWSLEDDYWGQGTQVTVSS | low polyreactivity |
| QVQLVESGGGLVQAGGSLRLSCAASGSIFQQYAMGWYRQAPGKERELVAAITYSGDGTYYADSVKGRFTISRDNAKNTVYLQMNSLKPEDTAVYYCAAYPRDPYKEYDYWGQGNQVTVSS | low polyreactivity |
| QVQLVESGGGLVQAGGSLRLSCAASGSIFQRYAMGWYRQAPGKERELVAAISGSGGRTYYADSVKGRFTISRDNAKNTVYLQMNSLKPEDTAVYYCAKDFRLRGGYDYWGQGTQVTVSS | high polyreactivity |
| QVQLVESGGGLVQAGGSLRLSCAASGSIFQRYTMGWYRQAPGKERELVARISGRGGSTYYADSVKGRFTISRDNAKNTVYLQMNSMKPEDTAVYYCAADTGRYLDSNYWGQGTQVTVSS | high polyreactivity |
| QVQLVESGGGLVQAGGSLRLSCAASGSIFQSNAMGWYRQAPAKESELVAAISSSGGRTYYADSVKGRFTISRDNAKNTVYFQMNSLKPEDTAVYYCAALGYPDGGWGLGTQVTVSS | low polyreactivity |
| QVQLVESGGGLVQAGGSLRLSCAASGSIFQSYAMGWYIQAPGKERELVAAISARGGTTNYADSVKGRFTISRDNAKNTVYLQMNSLKPEDTAVYYCAKVYRYGYSKYYYWGQGTQVTVSS | high polyreactivity |
| QVQLVESGGGLVQAGGSLRLSCAASGSIFQVYAMGWYRQAPGKEREFVAAISYSGGGTYYADSVKGRFTISRDNAKNTVFLQMNSLKPEDTAVYYCAADVSGWEYDFWGLGTQVTVSS | low polyreactivity |
| QVQLVESGGGLVQAGGSLRLSCAASGSIFQWYAMGWYRQAPGQERELFAAITWSGDTTYYADSVKGRFTISRDNAKNTVYLQMNRLKPEDTAVYYCAADTQDRTYYGWRQVGGYDYWGQGTQVTVSS | low polyreactivity |
| QVQLVESGGGLVQAGGSLRLSCAASGSIFQYTMGWYRQAPGKERELVAAITRSGSSTYYADSVKGRFTISRDNAKNTVYLQMNSLKPEDTAVYSCAHTIRRVLGYGSWGQGTQVTVSS | high polyreactivity |
| QVQLVESGGGLVQAGGSLRLSCAASGSIFQYYGMGWYRQAPGKERELVAAISRGGSTNYADSVKGRFTISRDNAKNTVYLQMNSLKPEDTAVYYCNARTYRKAYSGYNYWGQGTQVTVSS | high polyreactivity |
| QVQLVESGGGLVQAGGSLRLSCAASGSIFQYYVMGWYRQAPGKERELVAAISQSGGRTYYADSVKGRFTISRDNAKNTFYLQMNSLKPEDTAVYYCAAYSRNAEYDYWGQGTQVTVSS | high polyreactivity |
